Measured values: US20210388081A1 (Memorial Sloan Kettering, published 2021)

T1: FcRL3, overexpressed on 3T3 cells (UniProt Q96P31 18-734, limits assumed)
T1 construct: whole, on cells
T1 sequence (looked up): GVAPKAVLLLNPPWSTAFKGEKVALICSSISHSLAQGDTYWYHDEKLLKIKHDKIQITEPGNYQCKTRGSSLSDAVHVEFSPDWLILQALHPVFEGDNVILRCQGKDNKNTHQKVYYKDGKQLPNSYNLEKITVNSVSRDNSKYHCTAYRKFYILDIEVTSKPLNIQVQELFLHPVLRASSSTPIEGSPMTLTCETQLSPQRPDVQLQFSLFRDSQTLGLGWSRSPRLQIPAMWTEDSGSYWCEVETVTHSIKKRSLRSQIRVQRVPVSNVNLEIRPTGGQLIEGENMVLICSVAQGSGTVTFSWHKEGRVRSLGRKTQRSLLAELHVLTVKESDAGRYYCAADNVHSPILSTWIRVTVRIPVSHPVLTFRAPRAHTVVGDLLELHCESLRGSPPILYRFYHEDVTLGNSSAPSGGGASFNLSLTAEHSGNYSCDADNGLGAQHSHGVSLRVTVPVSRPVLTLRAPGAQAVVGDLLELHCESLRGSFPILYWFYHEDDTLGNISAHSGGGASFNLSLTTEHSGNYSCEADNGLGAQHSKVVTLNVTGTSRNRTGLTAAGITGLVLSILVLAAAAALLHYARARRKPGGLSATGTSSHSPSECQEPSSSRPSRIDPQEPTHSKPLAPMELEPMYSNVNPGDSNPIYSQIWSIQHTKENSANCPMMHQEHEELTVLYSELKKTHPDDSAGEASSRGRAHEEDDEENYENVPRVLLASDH

T2: FcRL6, overexpressed on 3T3 cells (UniProt Q6DN72 20-434, limits assumed)
T2 construct: whole, on cells
T2 sequence (looked up): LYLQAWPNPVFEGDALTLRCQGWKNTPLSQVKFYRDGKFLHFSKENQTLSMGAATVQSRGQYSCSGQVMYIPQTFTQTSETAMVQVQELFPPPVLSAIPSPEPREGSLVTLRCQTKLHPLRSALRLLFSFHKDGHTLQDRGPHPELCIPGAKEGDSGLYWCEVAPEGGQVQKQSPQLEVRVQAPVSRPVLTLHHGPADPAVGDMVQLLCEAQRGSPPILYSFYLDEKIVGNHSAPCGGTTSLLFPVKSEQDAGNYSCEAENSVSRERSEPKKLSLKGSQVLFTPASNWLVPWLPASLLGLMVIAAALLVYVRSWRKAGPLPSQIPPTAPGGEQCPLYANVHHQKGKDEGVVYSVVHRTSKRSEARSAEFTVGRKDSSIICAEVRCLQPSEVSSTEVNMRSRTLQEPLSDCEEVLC

B1: ET200-005 (scFv)
scFv: QPVLTQPPSVSVVPGKTARITCGGKNIGSKSVHWYQQKPGQAPVVVIHYDSDRPSGIPERFSGSNSGNTATLTISRVEAGDEADYYCQVWDSSSDHPYVFGTGTKVTVLGSRGGGGSGGGGSGGGGSLEMAQVQLVQSGAEVKKPGASVKVSCKASGYTFTNYGISWVRQAPGQGLEWMGWISAYNGNTNYAHKLQGRVTMTTDTSTSTANMELRSLRPDDTAVYYCARSYFGSHDYWGQGTLVTVSSTSGQAGQHHHHHHGAYPYDVPDYAS
notes: screened as phage clone; entry is VL-linker-VH-His tag-HA tag
B2: ET200-009 (scFv)
scFv: QSVLTQPPSASGTPGQTVTISCSGSNSNIGSNYVYWYQQLPGTAPKLLIYRNNQRPSGVPDRFSGSKSGTSASLAISGLRSEDEADYYCAAWDDSLSAYVFGTGTKVTVLGSRGGGGSGGGGSGGGGSLEMAQVQLVQSGAEVKKPGASVKVSCKASGYTFTSYGISWVRQAPGQGLEWMGWISAYNGNTNYAQKLQGRVTMTTDTSTSTAYMELRSLRSDDTAVYYCARSSGNMVSWKDMWGQGTLVTVSSTSGQAGQHHHHHHGAYPYDVPDYAS
notes: as for B1
B3: ET200-123 (scFv)
scFv: QAVLTQPPSASGTPGQRVTISCSGSSSNIGSNTVNWYQQLPGTAPKLLMYNNDQRPSGVPDRFSGSKSGTSASLAISGLQSEDEADYYCAAWDDSLNGYVFGPGTKVTVLGSRGGGGSGGGGSGGGGSLEMAQVQLVESGAEVKKPGASVKVSCKASGYTFTSYGISWVRQAPGQGLEWMGWISAYNGNTNYAQKLQGRVTMTTDTSTSTAYMELRSLRSDDTAVYYCARDLSRGANPHYYYYYGMDVWGQGTTVTVSSTSGQAGQHHHHHHGAYPYDVPDYAS
notes: as for B1
B4: ET200-010 (scFv)
scFv: QSALTQPASVSGSPGQSITISCTGTSSDVGGYNSVSWYQQHPGKAPRLMIYDVSNRPSGVSNRFSGSKSGNTASLTISGLQAEDEADYYCSSYTSSSTPLVFGTGTKVTVLGSRGGGGSGGGGSGGGGSLEMAQVQLVQSGAEVKKPGASVKVSCKASGYTFTSYGISWVRQAPGQGLEWMGWISAYNGNTNYAQKLQGRVTMTTDTSTSTAYMELRSLRSDDTAVYYCARGAVAYHDWGQGTLVTVSSTSGQAGQHHHHHHGAYPYDVPDYAS
notes: as for B1
B5: ET200-121 (scFv)
scFv: QSVLTQPPSVSGAPGQRVTVSCTGSRSNIGAGYDVHWYQQLPGTAPKLLIYGNSNRPPGVPDRFSGSKSGTSASLVITGLQAEDAADYYCQSYDNTVRESPYVFGTGTKVTVLGSRGGGGSGGGGSGGGGSLEMAEVQLVQSGAEVKKPGASVKVSCKVSGYTLTELSMHWVRQAPGKGLEWMGGFDPEDGETIYAQKFQGRVTMTEDTSTDTAYMELSSLRSEDTAVYYCATESNLVSRHYYYYGMDVWGQGTTVTVSSTSGQAGQHHHHHHGAYPYDVPDYAS
notes: as for B1
B6: ET200-124 (scFv)
scFv: SYVLTQPPSVSVAPGKTARISCGGNDIGSKSVFWYQQRPGQAPVLVVYDDSDRPSGLPERFSGFNSGNTATLTISRVEAGDEADYYCQVWDSSSDHYVFGTGTKVTVLGSRGGGGSGGGGSGGGGSLEMAQVQLVESGGGLVQPGRSLRLSCAASGFTFDDYAMHWVRQAPGKGLEWVSGISWNSGSIGYADSVKGRFTISRDNAKNSLYLQMNSLRAEDTALYYCAKDITYGSGSYGAFDIWGQGTMVTVSSTSGQAGQHHHHHHGAYPYDVPDYAS
notes: as for B1
B7: ET200-125 (scFv)
scFv: NFMLTQPHAVSESPGKTVTISCTRSSGSIASNYVQWYQQRPGSSPRTVIYEDNQRPSGVPGRFSGSIDSSSNSASLTISGLKTEDEADYYCQSYDSTSVLFGGGTKLTVLGSRGGGGSGGGGSGGGGSLEMAEVQLVQSGAEVKKPGSSVKVSCKASGGTFSSNSLSWVRQAPGQGLEWMGRIFPILGITNYAQKFQGRVTITADKSTSTAYMELSSLRSEDTAVYYCARGNYQWYDAFDIWGQGTMVTVSSTSGQAGQHHHHHHGAYPYDVPDYAS
notes: as for B1

What was measured:
[1] = biological target: T1, FcRL3, overexpressed on 3T3 cells; assay: phage clone on 3T3-FcRL3 cells
[2] = biological target: T2, FcRL6, overexpressed on 3T3 cells; assay: phage clone on 3T3-FcRL6 cells

Binder	binding result [1]	binding result [2]
B1	no binding	no binding
B2	no binding	no binding
B3	no binding	no binding
B4	no binding	no binding
B5	no binding	no binding
B6	no binding	no binding
B7	no binding	no binding
